We go through one substance from patent publication US20160136234A1.

The target in this test is Mitogen-Activated Protein Kinase-Activated Protein Kinase 2 (human) (UniProt P49137). The test is described as follows: cell-based or functional assay.

MMI-0100 (peptide) came in with an IC50 (radiometric kinase activity assay) of 22 µM.
